Results as given in patent publication US20150086555A1.

Tests used:
Settings in all cases: remark: other sources report otherwise
[1] = target: recombinant soluble homotrimeric HA of A/Anhui/1/05 (H5N1) (Influenza A virus A/Anhui/1/2005(H5N1)); experiment: HA microarray, BCC supernatant
[2] = target: recombinant soluble homotrimeric HA of A/Egypt/3300-NAMRU3/08 (H5N1) (Influenza A virus A/Egypt/3300-NAMRU3/2008(H5N1)); experiment: HA microarray, BCC supernatant
[3] = target: recombinant soluble homotrimeric HA of A/Hong Kong/2108/03 (H9N2) (Influenza A virus A/HK/2108/2003(H9N2)); experiment: HA microarray, BCC supernatant
[4] = target: recombinant soluble homotrimeric HA of A/Indonesia/5/05 (H5N1) (Influenza A virus A/Indonesia/5/2005(H5N1)); experiment: HA microarray, BCC supernatant
[5] = target: recombinant soluble homotrimeric HA of A/Japan/305/57 (H2N2) (Influenza A virus A/Japan/305/1957(H2N2)); experiment: HA microarray, BCC supernatant
[6] = target: recombinant soluble homotrimeric HA of A/Netherlands/219/03 (H7N7) (Influenza A virus A/Netherlands/219/03(H7N7)); experiment: HA microarray, BCC supernatant
[7] = target: recombinant soluble homotrimeric HA of A/Solomon Islands/3/06 (H1N1) (Influenza A virus A/Solomon Islands/3/2006(H1N1)); experiment: HA microarray, BCC supernatant
[8] = target: recombinant soluble homotrimeric HA of A/chicken/Vietnam/NCVD-016/08 (H5N1) (Influenza A virus A/chicken/Vietnam/NCVD-016/2008(H5N1)); experiment: HA microarray, BCC supernatant
[9] = target: recombinant soluble homotrimeric HA of A/northern shoveler/California/HKWF115/07 (H6) (Influenza A virus A/northern shoveler/California/HKWF115/2007(H6N1)); experiment: HA microarray, BCC supernatant
[10] = target: recombinant trimeric HA of H1N1 A/California/04/09 (Influenza A virus A/California/04/2009 (H1N1))
[11] = target: recombinant soluble homotrimeric HA of A/Wisconsin/67/05 (H3N2) (Influenza A virus A/Wisconsin/67/2005(H3N2)); experiment: HA microarray, BCC supernatant
[12] = target: recombinant soluble homotrimeric HA of A/swine/Ontario/01911-2/99 (H4N6) (Influenza A virus A/Swine/Ontario/01911-2/99 (H4N6)); experiment: HA microarray, BCC supernatant
[13] = target: recombinant soluble homotrimeric HA, A/Japan/305/57 H2N2 (Influenza A virus A/Japan/305/1957(H2N2)); experiment: microarray, transfection SN IgG, trimeric HA
[14] = target: recombinant soluble homotrimeric HA, A/Netherlands/219/03 H7N7 (Influenza A virus A/Netherlands/219/03(H7N7)); experiment: microarray, transfection SN IgG, trimeric HA
[15] = target: recombinant soluble homotrimeric HA, A/South Carolina/1/18 H1N1 (Influenza A virus A/South Carolina/1/18 (H1N1)); experiment: microarray, transfection SN IgG, trimeric HA
[16] = target: recombinant soluble homotrimeric HA, A/Wisconsin/67/05 H3N2 (Influenza A virus A/Wisconsin/67/2005(H3N2)); experiment: microarray, transfection SN IgG, trimeric HA
[17] = target: recombinant soluble homotrimeric HA, A/chicken/Vietnam/NCVD-016/08 H5N1 (Influenza A virus A/chicken/Vietnam/NCVD-016/2008(H5N1)); experiment: microarray, transfection SN IgG, trimeric HA
[18] = target: recombinant soluble homotrimeric HA, A/duck/Yangzhou/02/05 H8N4 (Influenza A virus A/duck/Yangzhou/02/2005(H8N4)); experiment: microarray, transfection SN IgG, trimeric HA
[19] = target: recombinant soluble homotrimeric HA, A/northern shoveler/California/HKWF115/07 H6N4 (Influenza A virus A/northern shoveler/California/HKWF115/2007(H6N1)); experiment: microarray, transfection SN IgG, trimeric HA
[20] = target: recombinant homotrimeric HA A/Hong Kong/1073/99 H9N2 (Influenza A virus A/Hong Kong/1073/99 (H9N2)); experiment: protein microarray, purified IgG, trimeric HA
[21] = target: recombinant homotrimeric HA A/Japan/305/57 H2N2 (Influenza A virus A/Japan/305/1957(H2N2)); experiment: protein microarray, purified IgG, trimeric HA
[22] = target: recombinant homotrimeric HA A/Netherlands/219/03 H7N7 (Influenza A virus A/Netherlands/219/03(H7N7)); experiment: protein microarray, purified IgG, trimeric HA
[23] = target: recombinant homotrimeric HA A/Solomon Islands/3/06 H1N1 (Influenza A virus A/Solomon Islands/3/2006(H1N1)); experiment: protein microarray, purified IgG, trimeric HA
[24] = target: recombinant homotrimeric HA A/South Carolina/1/18 H1N1 (Influenza A virus A/South Carolina/1/18 (H1N1)); experiment: protein microarray, purified IgG, trimeric HA
[25] = target: recombinant homotrimeric HA A/Wisconsin/67/05 H3N2 (Influenza A virus A/Wisconsin/67/2005(H3N2)); experiment: protein microarray, purified IgG, trimeric HA
[26] = target: recombinant homotrimeric HA A/chicken/Vietnam/NCVD-016/08 H5N1 (Influenza A virus A/chicken/Vietnam/NCVD-016/2008(H5N1)); experiment: protein microarray, purified IgG, trimeric HA
[27] = target: recombinant homotrimeric HA A/duck/Yangzhou/02/05 H8N4 (Influenza A virus A/duck/Yangzhou/02/2005(H8N4)); experiment: protein microarray, purified IgG, trimeric HA

B1: TCN-521 (3280_D18) (antibody, V domains shown)
VH: EVQLVQSGGGLVQPGGSLRLACVVSGFTVTSNYITWVRQAPGKGLEWVSVIYSHGRAYYSASVNGRFTISRHTSKNTVYLEMNSLRPEDTAVYYCAGGGLVGGYDEYFFDYWGQGTLATVSS
VL: ETVLTQSPGTLSLTPGERATLSCRVGQSVSGSHLAWYQQKPGQAPRLLIYGASSRATGIPDRFGGSVSGTDFTLTISRLEPEDSAVYYCQQYGDSRYTFGQGTKLEIK
[1]
  Trimeric HA Binding: RLU: 487 RLU
[2]
  Trimeric HA Binding: RLU: 47900 RLU
[3]
  Trimeric HA Binding: RLU: 93 RLU
[4]
  Trimeric HA Binding: RLU: 31500 RLU
[5]
  Trimeric HA Binding: RLU: 6730 RLU
[6]
  Trimeric HA Binding: RLU: 2500 RLU
[7]
  Trimeric HA Binding: RLU: 39600 RLU
[8]
  Trimeric HA Binding: RLU: 32400 RLU
[9]
  Trimeric HA Binding: RLU: 48000 RLU

B2: Fab fragment of TCN-534 (5249_B02) (Fab, V domains shown)
VH: QVQLVQSGAEVKKPGSSVKVSCRESGGTFNGYTITWVRQAPGQGLEWMGGIIPMMGTVNYAQKLQGRVTITTDYFTKTAYMDLNNLRSEDTAMYYCVKIRYTGQQLLWGQGTLVTVSS
VL: DIQMTQSPSTLSASIGDRVTITCRASQSIASWLAWYQQKPGKAPKLLIYEAVNLESGVPSRFSGSGSGTDFTLTISSLQPDDFATYFCQHYGTISQTFGGGTKVEIK
[10]
  Kd: 0.104 nM
  koff: 5.96e-05 s⁻¹
  kon: 573000 M⁻¹ s⁻¹

B3: Fab fragment of TCN-522 (3212_I12) (Fab, V domains shown)
VH: QVQLQQWGAGLLKPSETLSLTCTVSGGSLTDYSWNWIRQPPGKGLEWIGDTLHNGYTNYNPSLRGRVSISIDTSKNQVSLRLTSVTAADTALYYCARGSGGYGGFDYFGKLRTWDFWGQGTLVTVSS
VL: DIQLTQSPSSLSASVGDRVTITCRASQGIRNDLGWYQQKPGNAPKRLIFGASSLQSGVPSRFSGSGSGTEFTLTISSLQPEDFATYYCLQHNSYPYTFGQGTKLEIK
[10]
  Kd: 0.55 nM
  koff: 3.8e-05 s⁻¹
  kon: 69800 M⁻¹ s⁻¹

B4: TCN-554 (5277_M05) (antibody, V domains shown)
VH: QVQLVQSGADLKKPGASVKVSCKASGYTFTDYYIHWVRQAPGQGLEWMGWINPESGDTKYAQKFQGRVTMTRDTSITTAYMELGRLRSDDTAVYYCARDVSTTWSWFAPWGQGTLVTVSS
VL: DIVMTQSPDSLAVSLGERATINCRSSQSIFHNSNNENYLAWYQQKPGQPPKLLIYWASTRESGVPDRFSGSGSGTDFTLTISSLQAEDVAVYFCQQYYNAPLTFGGGTKVEIK
[5]
  Trimeric HA Binding: RLU: 328 RLU
[6]
  Trimeric HA Binding: RLU: 610 RLU
[7]
  Trimeric HA Binding: RLU: 115 RLU
[11]
  Trimeric HA Binding: RLU: 46500 RLU
[8]
  Trimeric HA Binding: RLU: 250 RLU
[12]
  Trimeric HA Binding: RLU: 78 RLU
[13]
  Trimeric HA Binding: RLU: 2620 RLU
[14]
  Trimeric HA Binding: RLU: 4520 RLU
[15]
  Trimeric HA Binding: RLU: 1260 RLU
[16]
  Trimeric HA Binding: RLU: 25300 RLU
[17]
  Trimeric HA Binding: RLU: 2710 RLU
[18]
  Trimeric HA Binding: RLU: 5810 RLU
[19]
  Trimeric HA Binding: RLU: 3350 RLU
[20]
  Trimeric HA Binding: RLU: 539 RLU
[21]
  Trimeric HA Binding: RLU: 705 RLU
[22]
  Trimeric HA Binding: RLU: 342 RLU
[23]
  Trimeric HA Binding: RLU: 1540 RLU
[24]
  Trimeric HA Binding: RLU: 166 RLU
[25]
  Trimeric HA Binding: RLU: 27100 RLU
[26]
  Trimeric HA Binding: RLU: 544 RLU
[27]
  Trimeric HA Binding: RLU: 386 RLU

B5: Fab fragment of TCN-535 (5246_P19) (Fab, V domains shown)
VH: QVQLVQSGSEVKKPGTSVKVSCTASGSVFTNYGISWVRQAPGQGLEWMGGIIPLFGAAKYAQKFQGRVTITADESTKTVYMELSRLTSKDTAIYFCAKAPRVYEYYFDQWGQGTPVTVSS
VL: EIVLTQSPGTLSLSPGERATLSCRASQSVSSSQLAWYQQKPGQAPRLIIYGASTRATGIPDRFSGSGSGTDFTLTIGRLEPEDFAVFFCQQYSTSPPTFGQGTKVDFK
[10]
  Kd: 0.165 nM
  koff: 0.000163 s⁻¹
  kon: 987000 M⁻¹ s⁻¹

B6: Fab fragment of TCN-530 (5248_H10a) (Fab, V domains shown)
VH: QVQLVQSGAEVRKPGSSVKVSCKASGGPFMSYAIGWVRQAPGQGLEWMGGINPVFGRPHYAQKFQGRVTIATDDSTKTSYMELSSLTSEDTGMYYCASRYSRSSPGTFESWGQGTLVTVSS
VL: EIVMTQFPATLSVSPGERVTLSCRASQSVSNNLAWYQQKPGQPPRLLIYDASTRATGVPAKFSGTGSGTEFTLSISSLQSEDFAVYYCQQYHNWPPSYSFGLGTKLEIK
[10]
  Kd: 0.562 nM
  koff: 0.000287 s⁻¹
  kon: 511000 M⁻¹ s⁻¹

B7: Fab fragment of TCN-523 (5248_A17) (Fab, V domains shown)
VH: QVQLVQSGAEVKKPGSSVKVSCKASGGSFSNYAFSWVRQAPGQGLEWMGGTIPLLGTTNYAQKFQGRVTISADQFTSTAYMELGSLRSEDTAVYYCTRRKMTTAFDSWGQGTLVTVSS
VL: QPVLTQPPSASASLGASVTLTCTLSSAYSNYKVDWYQQRPGKGPRFVMRVGTGGIVGSKGDGIPDRFSVLGSGLNRYLTIKNIQEEDESDYHCGADHGSGSNFVSPYVFGGGTKLTVL
[10]
  Kd: 0.09 nM
  koff: 5.1e-05 s⁻¹
  kon: 540000 M⁻¹ s⁻¹
